Assay results as given in patent US20230346773A1, “USE OF PCSK9 INHIBITOR IN PREPARATION OF PRODUCT FOR TREATING MULTIPLE DISEASES” (priority 2020, published 2023).
Marks after values point to notes of the source that are not given here.

Legend:
Assay type in all cases: in vivo
[1] = test system: hair follicles / hair growth in depilated C57BL/6 mice; test: Hair growth in C57BL/6 mice after rosin/paraffin depilation
Description: SPF grade C57BL/6 mice were selected and numbered according to their weight. They were randomly divided into compound group 1 (skin applied with 2% R-IMPP solution), compound group 2 (skin applied with 2% PF 06446846 solution), and compound group 3 (skin applied with 2% SBC-115076 solution), compound group 4 (skin applied with 2% SBC-110736 solution), monoclonal antibody group 1 (PCSK9subcutaneous injection monoclonal antibody ab81041, 5 mg/kg·d), monoclonal antibody group 2 (Subcutaneous injection of Evolocumab, 5 mg/kg·d), monoclonal antibody group 3 (subcutaneous injection of Alirocumab, 5 mg/kg·d), PCSK9 RNA interference group-1 (skin applied with 2% PCSK9 small interfering RNA-1 solution), PCSK9 RNA interference Group-2 (skin applied with 2% PCSK9 small interfering RNA-2 solution), PCSK9 RNA interference group-3 (skin applied with 2% PCSK9 small interfering RNA-3 solution), polypeptide group (subcutaneous injection of Abcam company ab32727, 3 mg/kg·d), positive control group (skin applied with 2% minoxidil solution), negative control group (skin applied with 60% ethanol), and model control group (skin applied with 60% ethanol), 10 mice in each group, half male and half female. After the mice were anesthetized with ether, they were coated on the back with a mixture of rosin and paraffin (1:1) after hot melting, and then peeled off after it solidified and hardened. The back of the mouse was cleaned to be hairless and without injuries. The depilation area was about 3 cm×4 cm. From the 2nd day after depilation, the corresponding drugs were applied to the hair removal area, twice a day, 0.5 mL per animal each time, and subcutaneously injected once a week.
From the second day after application, observe the daily color change of the skin on the back of the mice to determine the growth state of the hair follicles and visually observe the hair growth in the depilation area, and score the new hair growth in the depilation area once a day. Five mice in each group were reserved for 40 days of visual observation, and the growth of back hair was recorded.
On the 17th day, five mice in each group were sacrificed by cervical dislocation. The samples were taken from the same part of the back parallel to the spine, fixed with 10% formaldehyde, dehydrated, embedded in paraffin, sectioned, stained with HE, and sealed with neutral gum. Then the histology of hair follicles was observed under light microscope, and morphological staging of hair follicles was performed. According to the international hair cycle scoring method, the hair follicles were scored as follows: 100 points for growth stage VI, 200 points for early regression, 300 points for middle regression, and 400 points for late regression. 50 hair follicles were randomly selected from each mouse, the cycle of the hair follicles in each group was determined, and the average hair cycle score and the percentage of hair follicles in the growth phase VI, early regression, middle regression, and late regression were calculated.

tyrosinase = test: Tyrosinase intensity in skin tissue of vitiligo guinea pig model (immunohistochemistry, two-level scoring); conditions: n = 10
Description: (§1) 10 in each group, Half male and female. Except for the blank control group, the other groups were smeared with 5% hydroquinone in the hair removal area for decolorization, 0.5 mL each time, twice a day, and the animals in the blank control group were smeared with an equal amount of normal saline every day. […] After modeling, the drug was administered in the above manner, once a day for 30 days.
The excised mouse skin tissue was fixed in 10% formalin dehydrated, cleared in xylene, embedded in paraffin, sectioned, deparaffinized to water, then 50 μL of peroxidase blocking agent (3% H2O2) was added to each section for 10 min to block endogenous peroxidase activity. The sections were immersed in 0.01 mol·L-1PBS buffer and microwaved for 10 min, added with 50 μL mouse anti-human tyrosinase monoclonal antibody, left at 37° C. for 60 min, then added with 50 μL of Elivision reagent, left at 37° C. for 30 min. The sections were then placed in freshly prepared DAB-H2O2 chromogenic solution for color development, rinsed with distilled water, stained with hematoxylin for contrast for 1 min, and sealed with neutral gum. The tyrosinase-positive product was located in the cytoplasm of the cell, shown as yellow or brownish-yellow granules or clumps in the cells under the microscope. The two-level scoring method was used to determine the results. If the number of positive cells was less than 5%, the score was 0; 5%˜25% is 1 point; 2 points for 25%˜50%; 3 points for 50%˜75%; >75% is 4 points. When classified according to staining intensity: 1 point for light yellow; 2 points for yellow or dark yellow; 3 points for brown or brownish yellow. If the sum of the two was less than 2, it was negative (−); 2-3 points as positive (+); 4-5 points as moderately positive (2+); 6-7 points as strongly positive (3+).

[2] = test system: vitiligo guinea pig model caused by hydroquinone depigmentation; test: Vitiligo guinea pig model caused by hydroquinone depigmentation: counts of epidermal MC and melanin-granule-containing basal cells; conditions: guinea pig skin after hydroquinone decolorization, drug once a day for 30 days, n = 10, x ± s
Description: as §1
After the observation, the mice were sacrificed, and the skin tissue on the back about 3 cm×3 cm was cut for histopathological examination.
The excised mouse skin tissue was fixed in 10% formalin for 1 hour, washed with running water for 3-4 min, and placed into a phosphate buffer solution (pH 7.4) containing 0.1% dihydroxyphenylalanine, and let stand at 37° C. for 1 hour. Then it was replaced with fresh Dopa reagent and left at 37° C. for 12 hours, rinsed with running water, and fixed with Bouin's solution continuously for 24 h. After the specimens were taken out, it was rinsed with running water for 4 hours, dehydrated, cleared in xylene, embedded in paraffin, deparaffinized to water, and stained with hematoxylin-eosin for contrast. Dehydrated and routinely mounted. After Dopa-oxidase staining, brownish-black staining was MC positive.
The excised mouse skin tissue was fixed in 10% formalin, dehydrated, cleared with xylene, embedded in paraffin, sectioned, deparaffinized to water, washed with distilled water several times, then stained with Lillie reagent, soaked with ferric chloride and potassium ferricyanide mixed solution for 15-20 minutes, then differentiated with 1% acetic acid aqueous solution for several minutes, washed with distilled water several times, then quickly dehydrated with 95% ethanol and absolute ethanol, cleared in xylene, and sealed with neutral gum. If melanin was dark green after Lillie reagent staining, it was positive.

[3] = hair removal area on the back of mice, after hair removal

B1: Evolocumab (antibody, chains of the INN, looked up, V domains shown)
VH: EVQLVQSGAEVKKPGASVKVSCKASGYTLTSYGISWVRQAPGQGLEWMGWVSFYNGNTNYAQKLQGRGTMTTDPSTSTAYMELRSLRSDDTAVYYCARGYGMDVWGQGTTVTVSS
VL: ESALTQPASVSGSPGQSITISCTGTSSDVGGYNSVSWYQQHPGKAPKLMIYEVSNRPSGVSNRFSGSKSGNTASLTISGLQAEDEADYYCNSYTSTSMVFGGGTKLTVL
notes: PCSK9 monoclonal antibody jointly developed by Amgen and Astellas, trade name Repatha
Time from hair growth to the same length as the hair in the non-experimental area ([1]; back hair removal area of mice): 9.89* days | Time to grow new hair ([1]; back hair removal area of mice): 5.78* days | Time to match the length of hair in the non-experimental area ([1]; back hair removal area of mice): 16.68* days | Black skin duration ([1]; hair removal area on the back of mice): 10.21* days | Skin black-turning time [1, 3]: 5.23* days | Skin grayish-black-turning time [1, 3]: 16.83* days | Color (units) (tyrosinase; score in brackets for staining colour): 4 units | Number of positive cells (units) (tyrosinase; score in brackets for tyrosinase-positive cells): 4 units | Total number (units) (tyrosinase; sum of positive-cell and colour scores): 7 units | Color (tyrosinase; tyrosinase staining colour): Brownish-yellow | Number of positive cells (tyrosinase; tyrosinase-positive cells): 40% | Epidermal melanocyte count ([2]; average number of MCs in each 100 epidermal basal cells): 46.2 ± 3.8 | Basal cells containing melanin granules count ([2]; average number per 100 epidermal basal cells): 41.2 ± 3.9
